Where “and” joins values, the source holds several entries; their conditions need not be identical. Equal entries are not always repeated. Where two headings read alike, the source gives them in different places.
B1: chimeric 393C2C5 (antibody, human IgG1, kappa, V domains shown)
VH: DVQLVESGGGLVQPGGSRKLSCAASGFTFSSFGMHWVRQAPEKGLEWVAYISSGSSPIYYADTVKGRFTISRDNPKNTLFLQMTSLRSEDTAMYFCATFYYGNSFAYWGQGTLVTVSA
VL: DIVMTQSPSSLTVTAGEKVTMSCKSSQTLLNSGNQKNYLTWYQQKSGQPPKLLIYWASTRESGVPDRFTGSGSGTDFTLTISSVQAEDLAVYYCQNAYSYPVTFGSGTKVELKR
notes: chimeric, human IgG1/kappa constant regions; also called 393C2C5A
B2: chimeric 410H6H3 (antibody, human IgG1, kappa, V domains shown)
VH: DVLLVESGGGLVQPGGSRKLSCAASGFTFSSSGMHWVRQAPEKGLEWVAYISSGSNTIYYADTLKGRFTISRDNPKNTLFLQMTSLRSEDTAMYYCARIYYGNSFVYWGQGTLVTVSA
VL: DIVMTQSPSSLTVTAGEKVIMSCKSSQSLLNSGNQKNYLTWYQQKPGQPPKMLIYWASTRESGVPDRFRGSGSGTDFTLTISSVQAEDLAVYYCQNNYYYPLTFGTGTKLALKR
notes: chimeric, human IgG1/kappa constant regions; also called 410H6H3-Chimeric
B3: chimeric 412B6E4 (antibody, human IgG1, kappa, V domains shown)
VH: DVQLVESGGGLVQPGGSRKLSCAASGFTFSSFGVHWVRQAPEKGLEWVAYISSGSSTIYYAHSVKGRFTISRDNPKNTLFLQMTSLGSEDTATYYCARFYYGNSFAYWGQGTLVTVSA
VL: DIVMTQSPSSLTVTAGEKVTMSCKSSQSLLNSGNQKNYLTWYQQKPGQPPKMLIYWASTRESGVPDRFTGSGSGTDFTLTISSVQAEDLAVYYCQNAYTYPLTFGAGTRLELKR
notes: chimeric, human IgG1/kappa constant regions; also called 412B6E4-Chimeric
B4: chimeric 419B5G9 (antibody, human IgG1, kappa, V domains shown)
VH: DVQLVESGGGLVQPGGSRKLSCAASGFTFSTFGMHWVRQAPEKGLEWVAYISGGSTTIFYADTVKGRFTISRDNPKNTLFLQMTSVRSEDTAMYYCARFYYGNSFAYWGPGTLVTVST
VL: DIVMTQSPSSLTVTAGEKVTMSCKSSQSLLNSGNQKNYLTWYQQKPGQPPKMLIYWASTRESGVPDRFTGSGSGTDFTLTISSVQAEDLAVYYCQNAYSYPLTFGAGTKLELKR
notes: chimeric, human IgG1/kappa constant regions
B5: chimeric 429H6C5 (antibody, human IgG1, kappa, V domains shown)
VH: DVQLVESGGGLVQPGGSRKLSCAASGFTFSSFGMHWVRQAPEKELEWVAYISSGSSTIYYAHTVKGRFTISRDNPKNTLFLRMTSLGSEDTAMYYCVRFYYGNSFVNWGQGTLVTVSA
VL: DIVMTQSPSSLTATAGEKVTMSCKSSQSLLNSGNQKNYLTWYQQKPGQPPKMLIYWASTRESGVPDRFAGSGSGTDFTLTISSVQAEDLAVYYCQNAYIYPLTFGAGTRLELKR
notes: as for B4
B6: chimeric 418D2F9 (antibody, human IgG1, kappa, V domains shown)
VH: DVQLVESGGGLVQPGGSRKLSCAASGFTFSSFGMHWVRQAPEKGLEWVAYINTGSSTIYYADTVKGRFTISRDNPKNTLFLQMTSLRSEDTAMYYCARIYYGNSFVYWGQGTLVTVSA
VL: DIVMTQSPSSLTVTAGEKVTMSCKSSQSLLNSGNQKNYLTWYQQKPGQPPKLLIYWASTRESGVPDRFTGSGSGTDFTLTISSVQAEDLAVYYCQNDYSYPLTFGAGTKLELKR
notes: as for B4
B7: IMAB362 analog (Claudiximab, Zolbetuximab) (antibody, V domains shown)
VH: QVQLQQPGAELVRPGASVKLSCKASGYTFTSYWINWVKQRPGQGLEWIGNIYPSDSYTNYNQKFKDKATLTVDKSSSTAYMQLSSPTSEDSAVYYCTRSWRGNSFDYWGQGTTLTVSS
VL: DIVMTQSPSSLTVTAGEKVTMSCKSSQSLLNSGNQKNYLTWYQQKPGQPPKLLIYWASTRESGVPDRFTGSGSGTDFTLTISSVQAEDLAVYYCQNDYSYPFTFGSGTKLEIK
notes: in-house prepared analog; chimeric IgG1

What was measured:
human Claudin18.2 [1] = biological target: human Claudin18.2 (human); experiment: cell-based or functional assay
human Claudin18.2 [2] = biological target: human Claudin18.2 (human); experiment: cell-based or functional assay; remark: listed apart in the source
human Claudin18.2 [3] = biological target: T1, human Claudin18.2 (human); experiment: FACS, Claudin18.2-HEK293 cells
T1 construct: also called CLDN18.2
Procedure: (§1) The binding of chimeric antibodies to Claudin18.2 expressed on HEK293 cells was determine by FACS analysis. Briefly, HEK293 cells expressing human Claudin18.2 as prepared in the foregoing Example were harvested and incubated with anti-Claudin18.2 mAbs at 4° C. for 40 min, followed by fluorophore (iFluor 647)-labeled goat […] IgG (H+L) secondary antibodies at 4° C. for 0.5 hour. The samples were then analyzed by flow cytometry.

human Claudin18.2 [4] = biological target: T1, human Claudin18.2; experiment: FACS, Claudin18.2-HEK293 cells; remark: listed apart in the source
Procedure: as §1
After initial screening of cell binding with transfected supernatants, the binding pattern of chimeric and up to 3 humanized antibodies on Claudin18.2 expressed on HEK293 cells were plotted with antibody in 3× serial dilutions, starting concentration of 45 μg/ml, following the protocol described in Example 3.

human Claudin18.2 [5] = biological target: T1, human Claudin18.2; experiment: FACS, Claudin18.2-HEK293 cells; remark: listed apart in the source
Procedure: as §1

Binder	CDC % Relative activity (human Claudin18.2 [1])	CDC EC50 (human Claudin18.2 [1])	ADCC % Relative activity (human Claudin18.2 [2])	ADCC EC50 (human Claudin18.2 [2])	EC50 (human Claudin18.2 [3])	EC50 (human Claudin18.2 [4])	Span (human Claudin18.2 [4])	EC50 (human Claudin18.2 [5])
B1	2030%	0.105 µg/mL	318%	0.0111 µg/mL	0.687 nM	–	–	–
B2	2810%	0.0756 µg/mL	677%	0.0039 µg/mL	0.778 nM	0.843 µg/mL	79100	–
B3	2020%	0.105 µg/mL	535%	0.00494 µg/mL	0.677 nM	0.555 µg/mL	87900	–
B4	2000%	0.106 µg/mL	332%	0.00794 µg/mL	1.23 nM	–	–	–
B5	2430%	0.0874 µg/mL	144%	0.0184 µg/mL	0.908 nM	–	–	–
B6	3.04%	69.9 µg/mL	25.7%	0.103 µg/mL	0.65 nM	–	–	–
B7	–	2.7 µg/mL and 2.3 µg/mL and 2.12 µg/mL	–	–	0.517 nM	–	–	0.596 nM
